Results: paper PMC6465399, “S-nitrosylation of the Peroxiredoxin-2 promotes S-nitrosoglutathione-mediated lung cancer cells apoptosis via AMPK-SIRT1 pathway” (Cell Death & Disease, 2019)

Molecular target: the molecule itself
Experiment: non-reducing SDS-PAGE and immunoblot (dimer/monomer detection); A549 cells untreated or treated with GSNO for 24 h; 100 mM N-ethyl maleimide for 20 min at 37 °C to preserve the Prdx2 redox state; nonreducing lysis buffer (100 mM Tris-HCl pH 6.8, 10% glycerol, 2% SDS) with 100 mM NEM; immunoblot for Prdx2

B1: Peroxiredoxin-2 (enzyme, human (endogenous in A549), UniProt P32119 1-198, looked up)
chain: MASGNARIGKPAPDFKATAVVDGAFKEVKLSDYKGKYVVLFFYPLDFTFVCPTEIIAFSNRAEDFRKLGCEVLGVSVDSQFTHLAWINTPRKEGGLGPLNIPLLADVTRRLSEDYGVLKTDEGIAYRGLFIIDGKGVLRQITVNDLPVGRSVDEALRLVQAFQYTDEHGEVCPAGWKPGSDTIKPNVDDSKEYFSKHN
notes: Peroxiredoxin-2 (Prdx2), endogenous in human A549 lung cancer cells; three cysteines Cys51, Cys70, Cys172; The dimer seen on the non-reducing gel is the disulfide-linked (Cys51-Cys172) form; also called Prdx2; source: endogenous, A549 cells, in lysate
stoichiometry N: 2
